This passage reports Kd results from PMC7065885.

Assay [1] addresses human CD11b I-domain (human). In words: SPR.
The target in assay [2] is murine CD11b I-domain (mouse). In words: SPR.
Sequence of murine CD11b I-domain (mouse) (P05555 17-1153): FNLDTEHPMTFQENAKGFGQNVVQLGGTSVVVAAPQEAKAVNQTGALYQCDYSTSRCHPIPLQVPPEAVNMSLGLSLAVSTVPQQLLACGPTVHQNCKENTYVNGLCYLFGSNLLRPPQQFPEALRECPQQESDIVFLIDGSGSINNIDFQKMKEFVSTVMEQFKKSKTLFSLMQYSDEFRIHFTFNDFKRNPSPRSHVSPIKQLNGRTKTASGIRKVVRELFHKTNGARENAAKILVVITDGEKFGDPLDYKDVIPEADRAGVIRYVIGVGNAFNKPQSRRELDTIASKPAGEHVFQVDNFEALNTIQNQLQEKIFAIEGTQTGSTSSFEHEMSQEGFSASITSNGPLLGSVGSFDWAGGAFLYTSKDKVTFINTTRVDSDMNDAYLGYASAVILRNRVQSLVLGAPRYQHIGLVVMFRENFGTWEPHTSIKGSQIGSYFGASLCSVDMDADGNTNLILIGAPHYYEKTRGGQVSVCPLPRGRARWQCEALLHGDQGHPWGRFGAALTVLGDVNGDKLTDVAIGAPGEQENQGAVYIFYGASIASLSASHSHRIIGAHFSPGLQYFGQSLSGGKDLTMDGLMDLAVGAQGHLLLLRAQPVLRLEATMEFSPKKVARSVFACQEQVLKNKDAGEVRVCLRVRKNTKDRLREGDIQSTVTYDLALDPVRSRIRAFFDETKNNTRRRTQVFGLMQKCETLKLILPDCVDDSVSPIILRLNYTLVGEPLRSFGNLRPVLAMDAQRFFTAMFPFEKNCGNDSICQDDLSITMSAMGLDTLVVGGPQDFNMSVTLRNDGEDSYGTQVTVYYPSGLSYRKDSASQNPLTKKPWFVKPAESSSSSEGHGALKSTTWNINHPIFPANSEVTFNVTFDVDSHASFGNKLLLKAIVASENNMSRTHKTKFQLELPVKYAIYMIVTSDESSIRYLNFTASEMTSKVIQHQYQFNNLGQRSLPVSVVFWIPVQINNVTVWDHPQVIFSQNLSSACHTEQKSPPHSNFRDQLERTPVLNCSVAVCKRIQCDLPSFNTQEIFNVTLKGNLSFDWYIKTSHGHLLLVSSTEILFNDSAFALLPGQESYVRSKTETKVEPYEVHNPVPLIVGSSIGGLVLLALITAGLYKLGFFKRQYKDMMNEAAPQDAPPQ

For LukAB (complex), the Kd in assay [1] stood at 0.0393 µM; in assay [2], 247 µM.
